Measured values reported in patent US20260176336A1.

Biological target: human LTBR endogenously expressed on cells (HepG2, A549, A375, HCC1187, RPMI-7951, primary human breast CAFs) (human) (UniProt P36941)
Experiment: cell-based or functional assay

Chain of human LTBR endogenously expressed on cells (HepG2, A549, A375, HCC1187, RPMI-7951, primary human breast CAFs) (human) (P36941 31-435): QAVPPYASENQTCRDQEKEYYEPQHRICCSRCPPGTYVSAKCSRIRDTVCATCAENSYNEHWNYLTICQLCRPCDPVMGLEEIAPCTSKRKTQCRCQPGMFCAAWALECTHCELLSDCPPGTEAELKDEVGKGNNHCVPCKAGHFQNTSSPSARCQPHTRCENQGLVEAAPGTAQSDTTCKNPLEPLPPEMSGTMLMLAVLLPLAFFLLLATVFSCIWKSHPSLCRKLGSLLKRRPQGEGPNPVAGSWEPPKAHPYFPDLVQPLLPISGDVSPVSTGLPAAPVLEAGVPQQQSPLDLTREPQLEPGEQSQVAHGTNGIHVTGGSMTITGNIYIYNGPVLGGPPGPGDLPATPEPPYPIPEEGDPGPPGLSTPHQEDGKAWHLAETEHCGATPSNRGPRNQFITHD

CCL19 upregulation, HCC1187:CAF Co-culture EC50: 0.26 nM
CCL19 upregulation, HCC1187 Monoculture EC50: 0.23 nM
HCC1187 monoculture assay CCL19 read-out EC50: 0.239 nM
HCC-1187:RPMI7951 (cis-activation) co-culture assay CCL5 read-out EC50: 0.13 nM
HCC-1187:RPMI7951 (trans-activation) co-culture assay, CCL19 Read-out EC50: 0.084 nM
HepG2 Reporter assay, HepG2:FAP-CHO-K1 Co-culture EC50: 0.046 nM
HepG2 Reporter assay, HepG2 Monoculture EC50: 0.033 nM
ICAM1 upregulation in CAFs monoculture assay EC50: 0.044 nM
chemokine (CCL5) induction in RPMI-7951 EC50: 0.38 nM
B1: CBE-11 (antibody, from another filing, human IgG1, V domains shown)
VH: EVQLVESGGGLVKPGGSLRLSCAASGFTFSDYYMYWFRQAPGKGLEWVATISDGGSYTYYPDSVKGRFTISRDNAKNSLYLQMSSLRAEDTAVYYCAREENGNFYYFDYWGQGTTVTVSS
VL: DIQMTQSPSSLSASVGDRVTITCKAGQDIKSYLSWYQQKPGKAPKLLIYYATRLADGVPSRFSGSGSGTDYTLTISSLQPEDFATYYCLQHGESPWTFGGGTKLEIKR
